T1: Drosophila melanogaster RMC1 (Drosophila melanogaster, UniProt Q9VRX1 1-642)
T1 sequence: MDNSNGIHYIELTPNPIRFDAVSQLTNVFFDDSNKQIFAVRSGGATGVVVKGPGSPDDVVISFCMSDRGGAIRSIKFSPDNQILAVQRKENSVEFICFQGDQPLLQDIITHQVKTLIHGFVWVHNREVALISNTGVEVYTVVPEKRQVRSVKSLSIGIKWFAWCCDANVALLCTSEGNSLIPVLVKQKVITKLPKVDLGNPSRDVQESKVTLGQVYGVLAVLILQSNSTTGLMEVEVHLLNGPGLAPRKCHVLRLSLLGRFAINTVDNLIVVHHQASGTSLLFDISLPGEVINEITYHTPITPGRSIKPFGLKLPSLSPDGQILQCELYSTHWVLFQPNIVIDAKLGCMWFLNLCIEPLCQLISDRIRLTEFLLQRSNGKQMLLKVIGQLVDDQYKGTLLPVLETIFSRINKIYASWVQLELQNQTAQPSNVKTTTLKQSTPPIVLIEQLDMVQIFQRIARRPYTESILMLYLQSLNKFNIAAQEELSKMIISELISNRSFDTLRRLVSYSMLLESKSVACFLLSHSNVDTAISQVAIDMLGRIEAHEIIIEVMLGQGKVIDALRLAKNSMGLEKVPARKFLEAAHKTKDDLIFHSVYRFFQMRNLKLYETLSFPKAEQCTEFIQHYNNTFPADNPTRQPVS

B1: Drosophila melanogaster Mon1 (natural protein)
chain: MEVEQTSVRSDTNSTCEYLDAEGDPESPNLYQEADPDQEAEQQNHSIISELRDGLGTMRDNSALSPEPGQENKGLAASVESLALSTSTSAKTEDSIGGGLEEEYDYQHDSLWQGQKKHIFILSEAGKPIFSLHGNEDKLATLFGVIQALVSFVQMGQDAITSIHAGGIKFAFMQRSSLILVAASRSNMSVQQLQLQLGDVYNQILSILTYSHMTKIFERRKNFDLRRLLSGSERLFYNLLANDSSSAKVSNNIFTFLTNSIRVFPLPTTIRSQITSAIQSNCSKIKNLVFAVLIANNKLIALVRMKKYSIHPADLRLIFNLVECSESFKSSENWSPICLPKFDMNGYLHAHVSYLADDCQACLLLLSVDRDAFFTLAEAKAKITEKLRKSHCLEAINEELQQPFNAKLYQQVVGIPELRHFLYKPKSTAQLLCPMLRHPYKSLTELERLEAIYCDLLHRIHNSSRPLKLIYEMKEREVVLAWATGTYELYAIFEPVVDKATVIKYVDKLIKWIEKEYDVYFIRNHATF

Assays:
[1] = target: B1; experiment: cryo-EM structure
[2] = target: T1, Drosophila melanogaster RMC1; experiment: cryo-EM structure

| Binder | binding result [1] | binding result [2] |
| --- | --- | --- |
| Drosophila melanogaster Ccz1 (natural protein) MAKLLQRVEITLRSFYIFNSTFGQVEGEEHKKVLFYHPNDIELNTKIKDVGLSEAIIRFTGTFTSEDDCQALHTQKTTQLFYQPEPGYWLVLVLNVPKEVRLKEGVEVADYRGAEISDRIYRAILRQCYQMFRFQNGCFSSCGSEEPNPDKRRELLCQKLLQFYDQHLTNLRDPAQCDIIDMLHSIQYLPLDKTLFLRAQNFGTLCETFPDIKESIMLYQEQVLCGGKLSPEDLHCVHSYVVQHVLKVEASSSTIAVSPSLKRSISECQVGGFVRSRQKVAGDEHDAVNEEDHPMKVYVTLDKEAKPYYLLIYRALHITLCLFLNADQVAPKQDLYDDLHAYMAPQLTSLARDISSELTKEAVGAAGQDNSSGNSETAPKYLFINEQSLQHHTNFQRHLPQGLPRNVLSIIADLANGSGKAEMESAPAEEVQVKTTNDYWIVKRRCNYRQYYVILCNSKATLLDVTQEARRIFEQELTDDVFFDK | binds | binds |
| B1 | – | binds |

Reference: PMC10235969 (Proceedings of the National Academy of Sciences of the …, 2023)
